Measured values taken from PMC11077535.

Assays:
[1] = molecular target: androglobin heme-binding globin domain (circularly permuted globin domain of androglobin) (human); assay: SEC; size exclusion analysis in 150 mM NaCl buffer
[2] = molecular target: androglobin heme-binding globin domain (circularly permuted globin domain of androglobin) (human); assay: SEC; size exclusion analysis in a phosphate buffer, without salt

stoichiometry N [1]: 4
stoichiometry N [2]: 2
Substance: androglobin heme-binding globin domain (circularly permuted globin domain of androglobin) (domain or fragment)
